Measured values published in US20090280138A1 (OXFORD BIOMEDICA UK, published 2009).

Experiments:
[1] = target: T1, MHC class I molecule HLA-A*0301 (iTopia plate-bound monomer) (biotin (bound to streptavidin-coated plate)); experiment: iTopia off-rate assay, 37 C; fit R^2 0.64
T1 construct: also called A3
Procedure: (§1) The 9 mers were tested for Peptide Binding, Off Rate and Affinity using iTopia Epitope Discovery System in accordance with the manufacturer's instructions. Briefly, 96 well microtitre plates coated with MHC molecules representing different MHC alleles are used to identify candidate peptides. […] Determinations are performed in duplicate using an ELISA plate reader and included allele specific positive controls.
(§2) A one-phase exponential decay curve, with a plateau given equal to 0, was generated using GraphPad Prism® software, which calculated the t1/2 and goodness-of-fit, as measured by r², for each peptide.

[2] = target: T2, MHC class I molecule HLA-A*0201 (iTopia plate-bound monomer) (biotin (bound to streptavidin-coated plate)); experiment: iTopia off-rate assay, 37 C; fit R^2 0.42
T2 construct: also called A2
Procedure: as §1, §2

[3] = target: T3, MHC class I molecule HLA-B*0702 (iTopia plate-bound monomer) (biotin (bound to streptavidin-coated plate)); experiment: iTopia off-rate assay, 37 C; fit R^2 0.82
T3 construct: Commercial iTopia system; also called B7
Procedure: as §1, §2

[4] = target: T3, MHC class I molecule HLA-B*0702 (iTopia …); experiment: iTopia off-rate assay, 37 C; fit R^2 0.76
Procedure: as §1, §2

[5] = target: T1, MHC class I molecule HLA-A*0301 (iTopia …); experiment: iTopia off-rate assay, 37 C; fit R^2 0.96
Procedure: as §1, §2

[6] = target: T3, MHC class I molecule HLA-B*0702 (iTopia …); experiment: iTopia off-rate assay, 37 C; fit R^2 0
Procedure: as §1, §2

[7] = target: T2, MHC class I molecule HLA-A*0201 (iTopia …); experiment: iTopia off-rate assay, 37 C; fit R^2 0.77
Procedure: as §1, §2

[8] = target: T1, MHC class I molecule HLA-A*0301 (iTopia …); experiment: iTopia off-rate assay, 37 C; fit R^2 0.97
Procedure: as §1, §2

[9] = target: T3, MHC class I molecule HLA-B*0702 (iTopia …); experiment: iTopia off-rate assay, 37 C; fit R^2 0.94
Outline: (§3)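 Using MHC-coated 96-well plates per the kit instructions, each nonamer is assessed twice and detected with an ELISA plate reader. Allele-specific positive controls run in parallel. A mono-exponential decay model constrained to a zero plateau yields the half-life, with r² reporting fit quality.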

[10] = target: T2, MHC class I molecule HLA-A*0201 (iTopia …); experiment: iTopia off-rate assay, 37 C; fit R^2 0.9
Outline: as §3

[11] = target: T1, MHC class I molecule HLA-A*0301 (iTopia …); experiment: iTopia off-rate assay, 37 C; fit R^2 0.77
Procedure: as §1, §2

[12] = target: T2, MHC class I molecule HLA-A*0201 (iTopia …); experiment: iTopia off-rate assay, 37 C; fit R^2 0
Procedure: as §1, §2

[13] = target: T4, MHC class I molecule HLA-A*0101 (iTopia plate-bound monomer) (biotin (bound to streptavidin-coated plate)); experiment: iTopia off-rate assay, 37 C; fit R^2 0.18
T4 construct: also called A1
Procedure: as §1, §2

[14] = target: T2, MHC class I molecule HLA-A*0201 (iTopia …); experiment: iTopia off-rate assay, 37 C; fit R^2 0.72
Procedure: as §1, §2

[15] = target: T2, MHC class I molecule HLA-A*0201 (iTopia …); experiment: iTopia off-rate assay, 37 C; fit R^2 0.81
Procedure: as §1, §2

[16] = target: T3, MHC class I molecule HLA-B*0702 (iTopia …); experiment: iTopia off-rate assay, 37 C; fit R^2 0.81
Procedure: as §1, §2

[17] = target: T2, MHC class I molecule HLA-A*0201 (iTopia …); experiment: iTopia off-rate assay, 37 C; fit R^2 0.26
Procedure: as §1, §2

[18] = target: T2, MHC class I molecule HLA-A*0201 (iTopia …); experiment: iTopia off-rate assay, 37 C; fit R^2 0.11
Procedure: as §1, §2

[19] = target: T2, MHC class I molecule HLA-A*0201 (iTopia …); experiment: iTopia off-rate assay, 37 C; fit R^2 0.58
Procedure: as §1, §2

[20] = target: T3, MHC class I molecule HLA-B*0702 (iTopia …); experiment: iTopia off-rate assay, 37 C; fit R^2 0.95
Outline: as §3

[21] = target: T2, MHC class I molecule HLA-A*0201 (iTopia …); experiment: iTopia off-rate assay, 37 C; fit R^2 0.02
Procedure: as §1, §2

[22] = target: T1, MHC class I molecule HLA-A*0301 (iTopia …); experiment: iTopia off-rate assay, 37 C; fit R^2 0.84
Procedure: as §1, §2

[23] = target: T2, MHC class I molecule HLA-A*0201 (iTopia …); experiment: iTopia off-rate assay, 37 C; fit R^2 0.3
Procedure: as §1, §2

[24] = target: T3, MHC class I molecule HLA-B*0702 (iTopia …); experiment: iTopia off-rate assay, 37 C; fit R^2 0.86
Procedure: as §1, §2

[25] = target: T2, MHC class I molecule HLA-A*0201 (iTopia …); experiment: iTopia off-rate assay, 37 C; fit R^2 0.97
Procedure: as §1, §2

[26] = target: T4, MHC class I molecule HLA-A*0101 (iTopia …); experiment: iTopia off-rate assay, 37 C; fit R^2 0.15
Procedure: as §1, §2

[27] = target: T3, MHC class I molecule HLA-B*0702 (iTopia …); experiment: iTopia off-rate assay, 37 C; fit R^2 0.73
Procedure: as §1, §2

[28] = target: T2, MHC class I molecule HLA-A*0201 (iTopia …); experiment: iTopia off-rate assay, 37 C; fit R^2 0.2
Procedure: as §1, §2

[29] = target: T4, MHC class I molecule HLA-A*0101 (iTopia …); experiment: iTopia off-rate assay, 37 C; fit R^2 0.12
Procedure: as §1, §2

[30] = target: T1, MHC class I molecule HLA-A*0301 (iTopia …); experiment: iTopia off-rate assay, 37 C; fit R^2 0.99
Procedure: as §1, §2

[31] = target: T2, MHC class I molecule HLA-A*0201 (iTopia …); experiment: iTopia off-rate assay, 37 C; fit R^2 0.75
Procedure: as §1, §2

[32] = target: T3, MHC class I molecule HLA-B*0702 (iTopia …); experiment: iTopia off-rate assay, 37 C; fit R^2 0.38
Procedure: as §1, §2

[33] = target: T4, MHC class I molecule HLA-A*0101 (iTopia …); experiment: iTopia off-rate assay, 37 C; fit R^2 0.76
Procedure: as §1, §2

[34] = target: T2, MHC class I molecule HLA-A*0201 (iTopia …); experiment: iTopia off-rate assay, 37 C; fit R^2 0.87
Procedure: as §1, §2

[35] = target: T3, MHC class I molecule HLA-B*0702 (iTopia …); experiment: iTopia off-rate assay, 37 C; fit R^2 0.87
Procedure: as §1, §2

[36] = target: T3, MHC class I molecule HLA-B*0702 (iTopia …); experiment: iTopia off-rate assay, 37 C; fit R^2 0.04
Procedure: as §1, §2

[37] = target: T1, MHC class I molecule HLA-A*0301 (iTopia …); experiment: iTopia off-rate assay, 37 C; fit R^2 0.87
Procedure: as §1, §2

[38] = target: T2, MHC class I molecule HLA-A*0201 (iTopia …); experiment: iTopia off-rate assay, 37 C; fit R^2 0.83
Procedure: as §1, §2

[39] = target: T2, MHC class I molecule HLA-A*0201 (iTopia …); experiment: iTopia off-rate assay, 37 C; fit R^2 0.76
Procedure: as §1, §2

GLPHIRVFL (also called Peptide No 142) [5T4 9-mer peptide 142 GLPHIRVFL]
t½ half life [1]: 6 h | t½ half life [2]: 12.9 h | t½ half life [3]: 0.9 h

YPEKMRNRV (also called Peptide No 163) [5T4 9-mer peptide 163 YPEKMRNRV]
t½ half life [4]: 1.9 h

YVSFRNLTH (also called Peptide No 126) [5T4 9-mer peptide 126 YVSFRNLTH]
t½ half life [5]: 0.9 h | t½ half life [6]: 2.6 h

VLAQLPSLR [5T4 9-mer peptide 115 VLAQLPSLR]
t½ half life [7]: 0.6 h | t½ half life [8]: 0.2 h

LALIGAIFL (also called Peptide No 182) [5T4 9-mer peptide 182 LALIGAIFL]
t½ half life [9]: 0.5 h | t½ half life [10]: 3.2 h

LLVLYLNRK (also called Peptide No 186) [5T4 9-mer peptide 186 LLVLYLNRK]
t½ half life [11]: 3.2 h | t½ half life [12]: 21.4 h

LTCAYPEKM (also called Peptide No 161) [5T4 9-mer peptide 161 LTCAYPEKM]
t½ half life [13]: 3.7 h | t½ half life [14]: 3.1 h

LPSLRHLDL (also called Peptide No 117) [5T4 9-mer peptide 117 LPSLRHLDL]
t½ half life [15]: 0.7 h | t½ half life [16]: 3 h

VFLGIVLAL (also called Peptide No 179) [5T4 9-mer peptide 179 VFLGIVLAL]
t½ half life [17]: 15 h

EVVQGKDRL [5T4 9-mer peptide 157 EVVQGKDRL]
t½ half life [18]: 11 h

LHNGTLAEL (also called Peptide No 137) [5T4 9-mer peptide 137 LHNGTLAEL]
t½ half life [19]: 4.2 h | t½ half life [20]: 0.3 h

LIGAIFLLV (also called Peptide No 183) [5T4 9-mer peptide 183 LIGAIFLLV]
t½ half life [21]: 19.4 h | t½ half life [22]: 0.5 h

EKMRNRVLL [5T4 9-mer peptide 164 EKMRNRVLL]
t½ half life [23]: 7 h

LASNHFLYL [5T4 9-mer peptide 109 LASNHFLYL]
t½ half life [24]: 0.2 h | t½ half life [25]: 1.3 h | t½ half life [5]: 3.6 h | t½ half life [26]: 3 h

LTYVSFRNL [5T4 9-mer peptide 125 LTYVSFRNL]
t½ half life [27]: 6 h | t½ half life [28]: 8.1 h | t½ half life [29]: 3.9 h | t½ half life [30]: 0.7 h

LSNNSLVSL [5T4 9-mer peptide 121 LSNNSLVSL]
t½ half life [31]: 0.8 h | t½ half life [32]: 4.1 h

QTSYVFLGI (also called Peptide No 177) [5T4 9-mer peptide 177 QTSYVFLGI]
t½ half life [33]: 0.2 h | t½ half life [34]: 0.6 h

LPRDVLAQL [5T4 9-mer peptide 113 LPRDVLAQL]
t½ half life [35]: 3.3 h

VLYLNRKGI [5T4 9-mer peptide 187 VLYLNRKGI]
t½ half life [36]: 2.9 h | t½ half life [37]: 1.4 h | t½ half life [38]: 0.6 h

LDLSNNSLV (also called Peptide No 120) [5T4 9-mer peptide 120 LDLSNNSLV]
t½ half life [39]: 3.4 h
